Here are results for 5 molecules from article PMC4091835 (Nature structural & molecular biology, 2014).

As a reminder, the stoichiometry N is the number of molecules, sites or subunits per partner or assembly. Usually Kd stands for a measure of binding affinity in units of concentration. The low end stands for higher affinity, the high end for lower affinity.

The labels stand for the following.
B1: Full-length human IRSp53 (natural protein, UniProt Q9UQB8-4 1-521, looked up)
chain: MSLSRSEEMHRLTENVYKTIMEQFNPSLRNFIAMGKNYEKALAGVTYAAKGYFDALVKMGELASESQGSKELGDVLFQMAEVHRQIQNQLEEMLKSFHNELLTQLEQKVELDSRYLSAALKKYQTEQRSKGDALDKCQAELKKLRKKSQGSKNPQKYSDKELQYIDAISNKQGELENYVSDGYKTALTEERRRFCFLVEKQCAVAKNSAAYHSKGKELLAQKLPLWQQACADPSKIPERAVQLMQQVASNGATLPSALSASKSNLVISDPIPGAKPLPVPPELAPFVGRMSAQESTPIMNGVTGPDGEDYSPWADRKAAQPKSLSPPQSQSKLSDSYSNTLPVRKSVTPKNSYATTENKTLPRSSSMAAGLERNGRMRVKAIFSHAAGDNSTLLSFKEGDLITLLVPEARDGWHYGESEKTKMRGWFPFSYTRVLDSDGSDRLHMSLQQGKSSSTGNLLDKDDLAIPPPDYGAASRAFPAQTASGFKQRPYSVAVPAFSQGLDDYGARSMSSGSGTLVSTV
B4: CRIB–PR domain of IRSp53 (residues 260–291), synthetic peptide (peptide, UniProt Q9UQB8-4 260-291, looked up)
peptide: Ac-ASKSNLVISDPIPGAKPLPVPPELAPFVGRMS-NH2
B5: Human Cdc42 residues 1–178, constitutively active mutant G12V (domain or fragment)
chain: not shown

Series [1] deals with the molecule itself. Put plainly: SEC + other: glycerol gradient sedimentation.
Series [2] has as its target B1. Put plainly: SEC + other: glycerol gradient sedimentation.
The target in series [3] is B4. Put plainly: ITC.
The target in series [4] is B5. Put plainly: ITC. On the technique in general: In ITC the heat of successive injections is recorded.
For series [5], the target named is B1. Put plainly: ITC.
The target of series [6] is B4. Put plainly: ITC.

B1: the “stoichiometry N” value in series [1] turned out to be 2.

B2: Human Eps8 (natural protein, UniProt Q12929 1-822, looked up)
chain: MNGHISNHPSSFGMYPSQMNGYGSSPTFSQTDREHGSKTSAKALYEQRKNYARDSVSSVSDISQYRVEHLTTFVLDRKDAMITVDDGIRKLKLLDAKGKVWTQDMILQVDDRAVSLIDLESKNELENFPLNTIQHCQAVMHSCSYDSVLALVCKEPTQNKPDLHLFQCDEVKANLISEDIESAISDSKGGKQKRRPDALRMISNADPSIPPPPRAPAPAPPGTVTQVDVRSRVAAWSAWAADQGDFEKPRQYHEQEETPEMMAARIDRDVQILNHILDDIEFFITKLQKAAEAFSELSKRKKNKKGKRKGPGEGVLTLRAKPPPPDEFLDCFQKFKHGFNLLAKLKSHIQNPSAADLVHFLFTPLNMVVQATGGPELASSVLSPLLNKDTIDFLNYTVNGDERQLWMSLGGTWMKARAEWPKEQFIPPYVPRFRNGWEPPMLNFMGATMEQDLYQLAESVANVAEHQRKQEIKRLSTEHSSVSEYHPADGYAFSSNIYTRGSHLDQGEAAVAFKPTSNRHIDRNYEPLKTQPKKYAKSKYDFVARNNSELSVLKDDILEILDDRKQWWKVRNASGDSGFVPNNILDIVRPPESGLGRADPPYTHTIQKQRMEYGPRPADTPPAPSPPPTPAPVPVPLPPSTPAPVPVSKVPANITRQNSSSSDSGGSIVRDSQRHKQLPVDRRKSQMEEVQDELIHRLTIGRSAAQKKFHVPRQNVPVINITYDSTPEDVKTWLQSKGFNPVTVNSLGVLNGAQLFSLNKDELRTVCPEGARVYSQITVQKAALEDSSGSSELQEIMRRRQEKISAAASDSGVESFDEGSSH
Consider B2, for which, in the series with Full-length human IRSp53 [2], the “stoichiometry N” value is 1 Eps8 per IRSp53 (2:2).

B3: Isolated SH3 domain of IRSp53 (domain or fragment)
chain: NGRMRVKAIFSHAAGDNSTLLSFKEGDLITLLVPEARDGWHYGESEKTKMRGWFPFSYTRVLDS
B3 gave a Kd in series [3] of 114 µM.
In turn, B4 displayed a Kd in series [4] of 5 µM.
Regarding B5, in the series with Full-length human IRSp53 [5], binding was characterised by a dissociation constant (Kd) of 16.1 µM, the “fold reduction of the enthalpy of binding against CRIB–PR” value worked out at 3 fold and the “stoichiometry N” value was found to be 1 Cdc42 per CRIB–PR. In addition, in series [6], the “stoichiometry N” value amounted to 1 Cdc42 per CRIB–PR.
